Consider 61 sequences from the supplement of paper PMC7877785.

± gives the uncertainty stated by the source.

This series is described as follows: self-splicing fitness, log relative to wild type (ln ratio); higher = more splicing; Tetrahymena group I intron in knt gene, E. coli kanamycin selection, DiMSum; sequences stand for … in CUCUCU…GGAGGGAAAAGUUAUCAGGCAUGCACCUGGUAGCUAGUCUUUAAACCAAUAGAUUGCAUCGGUUUAAAAGGCAAGACCGUCAAAUUGCGGGAAAGGGGUCAACAGCCGUUCAGUACCAAGUCUCAGGGGAAACUUUGAGAUGGCCUUGCAAAGGGUAUGGUAAUAAGCUGACGGACAUGGUCCUAACCACGCAGCCAAGUCCUAAGUCAACAGAUCUUCUGUUGAUAUGGAUGCAGUUCACAGACUAAAUGUCGGUCGGGGAAGAUGUAUUCUUCUCAUAAGAUAUAGUCGGACCUCUCCUUAAUGGGAGCUAGCGGAUGAAGUGAUGCAACACUGGAGCCGCUGGGAACUAAUUUGUAUGCGAAAGUAUAUUGAUUAGUUUUGGAGUACUCGUGGUCG
In a few lines: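 The eight P1ex-region nucleotides of an intron in the knt kanamycin-resistance gene on pET-22b(+) were all randomised and the library put into E. coli BL21(DE3). Six replicate transformations were grown overnight at 37°C or 30°C on LB agar with or without 25 μg/mL kanamycin, together with 100 μg/mL carbenicillin, 50 μM IPTG and 0.2% rhamnose. Colonies were pooled and amplicon-sequenced on an Illumina HiSeq 2500. Fitness from DiMSum is the error-weighted combination of wild-type-normalised replicate fold changes, kanamycin over none.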

As for CGCAAGCAAUAUUACGGUAA, the “self-splicing fitness (ln)” value was -3.47 ± 0.16 (30 °C) and -1.67 ± 0.1 (37 °C). The matching figures for AUUGAGCAAUAUUACGUCGA: -3.47 ± 0.31 and -1.18 ± 0.25. As for CGAAAGCAAUAUUACGAAGA, the “self-splicing fitness (ln)” value runs as follows: (30 °C) -2.12 ± 0.16; (37 °C) -0.849 ± 0.13. The matching figures for AAUAAGCAAUAUUACGAUAA: -1.9 ± 0.19 and -1.03 ± 0.18. Regarding GCUAAGCAAUAUUACGCUCA, the “self-splicing fitness (ln)” value was -1 ± 0.11 (30 °C) and -1.52 ± 0.14 (37 °C). Take GCCCAGCAAUAUUACGUGUC: the “self-splicing fitness (ln)” value runs as follows: (30 °C) -0.887 ± 0.053; (37 °C) -0.349 ± 0.066.

Turning to CCCAAGCAAUAUUACGCACA, the “self-splicing fitness (ln)” value (30 °C) was -2.53 ± 0.2 and the “self-splicing fitness (ln)” value (37 °C) was -2.19 ± 0.31. The matching figures for AUUGAGCAAUAUUACGUUCG: -1.65 ± 0.13 and -1.14 ± 0.14. Turning to GAUCAGCAAUAUUACGGCAG, the “self-splicing fitness (ln)” value is -3.4 ± 0.33 (30 °C) and -2.34 ± 0.27 (37 °C). As to GCCUAGCAAUAUUACGUGAA, the “self-splicing fitness (ln)” value by setting is: (30 °C) -0.836 ± 0.073; (37 °C) 0.346 ± 0.077. For ACUAAGCAAUAUUACGGACU, the “self-splicing fitness (ln)” value worked out at 0.14 ± 0.054 (30 °C) and 0.436 ± 0.076 (37 °C). In the case of GGGGAGCAAUAUUACGGGAG, the “self-splicing fitness (ln)” value (37 °C) was -1.53 ± 0.39. Take UUCCAGCAAUAUUACGACCA: the “self-splicing fitness (ln)” value is -0.177 ± 0.26 (30 °C) and -0.862 ± 0.23 (37 °C). The matching figures for UCGAAGCAAUAUUACGUGGG: -2.34 ± 0.14 and -2.18 ± 0.18. Taken in the same sequence, the figures for CGCUAGCAAUAUUACGACCU were -1.72 ± 0.19 and -1.62 ± 0.18.

In the case of AUCAAGCAAUAUUACGCUCC, the “self-splicing fitness (ln)” value (30 °C) was -0.122 ± 0.16 and the “self-splicing fitness (ln)” value (37 °C) was -1.04 ± 0.17. The matching figures for GAACAGCAAUAUUACGAACA: -0.908 ± 0.1 and -0.166 ± 0.12. The matching figures for GACCAGCAAUAUUACGCGAG: -1.37 ± 0.16 and -0.897 ± 0.13.

In the case of ACCUAGCAAUAUUACGUAGC, the “self-splicing fitness (ln)” value is -1.81 ± 0.12 (30 °C) and -0.966 ± 0.14 (37 °C).

AUAUAGCAAUAUUACGUUUG: the “self-splicing fitness (ln)” value runs as follows: (30 °C) -2.71 ± 0.23; (37 °C) -2.21 ± 0.26. The matching figures for CACAAGCAAUAUUACGCUCC: -1.93 ± 0.16 and -1.66 ± 0.22. As to UUGAAGCAAUAUUACGUCAA, the “self-splicing fitness (ln)” value runs as follows: (30 °C) -0.54 ± 0.083; (37 °C) 0.078 ± 0.1. On to GACUAGCAAUAUUACGGUCU, for which the “self-splicing fitness (ln)” value (30 °C) is -3.36 ± 0.22 and the “self-splicing fitness (ln)” value (37 °C) is -3.21 ± 0.33. Turning to AGUUAGCAAUAUUACGGAAU, the “self-splicing fitness (ln)” value was -3.73 ± 0.46 (30 °C) and -2 ± 0.43 (37 °C).

Take CCAUAGCAAUAUUACGUUGA: the “self-splicing fitness (ln)” value by setting is: (30 °C) -3.57 ± 0.26; (37 °C) -2.31 ± 0.15. For the sequence GAGUAGCAAUAUUACGUAGC, the “self-splicing fitness (ln)” value (30 °C) was -2.44 ± 0.34. As to CUCGAGCAAUAUUACGGACU, the “self-splicing fitness (ln)” value reads like this: (30 °C) -2.35 ± 0.19; (37 °C) -1.95 ± 0.26.

As for GCGAAGCAAUAUUACGAGUG, the “self-splicing fitness (ln)” value is, setting by setting: (30 °C) -1.09 ± 0.1; (37 °C) -2.13 ± 0.12. The matching figures for AGCAAGCAAUAUUACGACAC: -1.21 ± 0.085 and -0.583 ± 0.11.

UGUCAGCAAUAUUACGGUGA: the “self-splicing fitness (ln)” value reads like this: (30 °C) -0.413 ± 0.094; (37 °C) -0.355 ± 0.12. Taken in the same sequence, the figures for GCUUAGCAAUAUUACGCAGU were -2.45 ± 0.25 and -3.16 ± 0.47. The matching figures for GCGUAGCAAUAUUACGUAGG: -3.73 ± 0.22 and -2.02 ± 0.19. GUGGAGCAAUAUUACGUACG: the “self-splicing fitness (ln)” value (37 °C) was -2.05 ± 0.23. As to ACCGAGCAAUAUUACGCGCC, the “self-splicing fitness (ln)” value runs as follows: (30 °C) -3.19 ± 0.25; (37 °C) -3.32 ± 0.43. On to CACUAGCAAUAUUACGCAAC, for which, for the setting “37 °C”, the “self-splicing fitness (ln)” value is -2.5 ± 0.29. In the case of UCAAAGCAAUAUUACGCCUU, the “self-splicing fitness (ln)” value is, setting by setting: (30 °C) -3.63 ± 0.26; (37 °C) -2.93 ± 0.28. Taken in the same sequence, the figures for AGGCAGCAAUAUUACGUCUU were -4.07 ± 0.25 and -2.58 ± 0.19. The matching figures for GCCAAGCAAUAUUACGGACC: -3.32 ± 0.15 and -0.612 ± 0.13. The matching figures for AUCCAGCAAUAUUACGAAUC: -2.04 ± 0.15 and -1.87 ± 0.22. Take GGUUAGCAAUAUUACGACGC: the “self-splicing fitness (ln)” value was 0.551 ± 0.17 (30 °C) and 0.289 ± 0.16 (37 °C). Taken in the same sequence, the figures for CGGUAGCAAUAUUACGAGAA were -2.77 ± 0.32 and -1.85 ± 0.33. Take CCCCAGCAAUAUUACGCAUG: the “self-splicing fitness (ln)” value is -3.67 ± 0.17 (30 °C) and -2.75 ± 0.16 (37 °C).

For CGUCAGCAAUAUUACGUAUC, the “self-splicing fitness (ln)” value runs as follows: (30 °C) -3.54 ± 0.19; (37 °C) -2.06 ± 0.19. The matching figures for CCAUAGCAAUAUUACGGGUG: -1 ± 0.06 and -1.48 ± 0.078. The matching figures for AACCAGCAAUAUUACGUUGC: -3.21 ± 0.12 and -3.05 ± 0.19. The matching figures for GAACAGCAAUAUUACGCUGA: -3.29 ± 0.2 and -2.04 ± 0.14. Regarding AAUCAGCAAUAUUACGUAGA, the “self-splicing fitness (ln)” value (30 °C) was -0.378 ± 0.071 and the “self-splicing fitness (ln)” value (37 °C) is -0.124 ± 0.089. Taken in the same sequence, the figures for AGCGAGCAAUAUUACGGAGA were -2.52 ± 0.26 and -2.14 ± 0.3. The matching figures for GCAGAGCAAUAUUACGAGCU: -4.1 ± 0.42 and -1.17 ± 0.26. For GAAAAGCAAUAUUACGUCGC, the “self-splicing fitness (ln)” value was -1.38 ± 0.08 (30 °C) and -0.835 ± 0.086 (37 °C). As to GGGUAGCAAUAUUACGAUGC, the “self-splicing fitness (ln)” value by setting is: (30 °C) -0.816 ± 0.14; (37 °C) -0.295 ± 0.19. The matching figures for ACGUAGCAAUAUUACGACAU: -0.126 ± 0.012 and 0.0543 ± 0.032.

Regarding AUCGAGCAAUAUUACGCUGU, the “self-splicing fitness (ln)” value (30 °C) was -2.24 ± 0.18 and the “self-splicing fitness (ln)” value (37 °C) was -3.35 ± 0.37. On to CUAUAGCAAUAUUACGUUUA, for which the “self-splicing fitness (ln)” value is, setting by setting: (30 °C) -3.4 ± 0.36; (37 °C) -1.74 ± 0.19. The matching figures for GCUCAGCAAUAUUACGAGGG: -2.38 ± 0.16 and -2.57 ± 0.25. In the case of GAUUAGCAAUAUUACGAUUC, the “self-splicing fitness (ln)” value by setting is: (30 °C) -2.58 ± 0.22; (37 °C) -1.45 ± 0.2. Taken in the same sequence, the figures for AGGGAGCAAUAUUACGCAUA were -2.22 ± 0.2 and -2.63 ± 0.33. Regarding AGAUAGCAAUAUUACGACUG, the “self-splicing fitness (ln)” value (30 °C) was -1.38 ± 0.2 and the “self-splicing fitness (ln)” value (37 °C) was 0.221 ± 0.29. For CCUAAGCAAUAUUACGCGUA, the “self-splicing fitness (ln)” value is -1.88 ± 0.25 (30 °C) and -2.19 ± 0.33 (37 °C). Consider UCGGAGCAAUAUUACGGCCC, for which the “self-splicing fitness (ln)” value (37 °C) was -2.31 ± 0.45. Consider AUAUAGCAAUAUUACGGUAU, for which the “self-splicing fitness (ln)” value runs as follows: (30 °C) -3.75 ± 0.32; (37 °C) -1.45 ± 0.2.
